This is an account of results in patent US20150290319A1 (EMERGENT BIOSOLUTIONS CANADA, published 2015).

In experiment [1] the target is T1, recombinant toxin B fragment 4 (Clostridium difficile, UniProt P18177 1777-2366). In words: Western blot, 3 ug protein per lane, mAb from CHOK1SV at 0.038 ug/mL [Cont.].
Experiment [2] concerns the target recombinant toxin B fragment 1 (Clostridium difficile, UniProt P18177 1-546). The description is as above.
The target of experiment [3] is T2, Clostridium difficile toxin B (whole toxin B) (Clostridium difficile).
T2 construct: also called TcdB; tcdB
Nature of the experiment: BLI (Octet QKe), mAb on SA sensor, toxin B analyte, model 1:1; head prints KD (nM) but Kdis/Kon gives this number in M. In general terms: BLI is a label-free optical method that tracks binding on a fibre tip over time.

Experiment [4] deals with T1, recombinant toxin B fragment 4. In words: Western blot, 3 ug protein per lane, mAb from CHOK1SV at 5 ug/mL. For orientation: Immunoblotting shows a protein as a band on a membrane.
In experiment [5] the target is T2, Clostridium difficile toxin B (whole …). Nature of the experiment: BLI (Octet QKe), mAb from CHOK1SV, toxin B; column kdis2 (1/s).
Experiment [6] shares this target. Nature of the experiment: BLI (Octet QKe), mAb on SA sensor, toxin B analyte, model 1:1.

T1 sequence (P18177 1777-2366 limits assumed): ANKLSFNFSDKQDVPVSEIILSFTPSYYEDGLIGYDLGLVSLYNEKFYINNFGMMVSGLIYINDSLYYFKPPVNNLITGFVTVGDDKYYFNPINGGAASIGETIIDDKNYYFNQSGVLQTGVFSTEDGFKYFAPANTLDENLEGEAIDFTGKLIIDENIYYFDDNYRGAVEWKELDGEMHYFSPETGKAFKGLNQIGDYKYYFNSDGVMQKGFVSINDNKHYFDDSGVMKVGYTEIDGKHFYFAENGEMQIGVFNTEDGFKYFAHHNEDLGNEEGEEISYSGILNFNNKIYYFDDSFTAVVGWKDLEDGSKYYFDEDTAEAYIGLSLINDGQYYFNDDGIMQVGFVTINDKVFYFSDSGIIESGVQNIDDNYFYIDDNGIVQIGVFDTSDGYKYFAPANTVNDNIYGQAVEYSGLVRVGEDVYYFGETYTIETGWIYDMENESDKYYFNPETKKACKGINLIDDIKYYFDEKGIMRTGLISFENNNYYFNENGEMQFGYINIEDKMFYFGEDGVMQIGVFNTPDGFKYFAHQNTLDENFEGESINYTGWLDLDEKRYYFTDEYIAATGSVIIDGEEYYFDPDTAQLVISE
Chain of recombinant toxin B fragment 1 (P18177 1-546 limits assumed): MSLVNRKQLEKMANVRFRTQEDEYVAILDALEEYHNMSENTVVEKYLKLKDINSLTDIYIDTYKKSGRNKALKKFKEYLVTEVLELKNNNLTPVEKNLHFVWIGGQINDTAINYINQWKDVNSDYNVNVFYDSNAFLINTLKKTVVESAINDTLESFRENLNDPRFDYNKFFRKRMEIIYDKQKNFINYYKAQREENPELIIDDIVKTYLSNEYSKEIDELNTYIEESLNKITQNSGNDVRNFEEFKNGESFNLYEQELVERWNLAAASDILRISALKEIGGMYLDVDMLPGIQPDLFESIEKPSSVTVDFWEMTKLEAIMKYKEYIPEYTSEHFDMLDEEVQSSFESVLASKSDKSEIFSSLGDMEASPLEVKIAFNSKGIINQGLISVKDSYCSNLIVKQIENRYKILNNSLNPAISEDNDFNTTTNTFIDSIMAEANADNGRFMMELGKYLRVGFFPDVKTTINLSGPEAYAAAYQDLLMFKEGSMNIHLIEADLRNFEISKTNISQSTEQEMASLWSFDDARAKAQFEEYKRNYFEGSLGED

B1: huCAN46G24 (antibody, V domains shown)
VH: EVQLVQSGAEVKKPGESVKVSCKASGYSFTGYYIHWVKQAPGQGLEWVGRIFPYNGAASYNQNFKGKATLTVDKSSSTAYMELSSLRSEDTAVYFCARWLRVYFDYWGQGTTVTVSS
VL: EIVLTQSPSSLSTSVGDRVTISCSASSSVTYMHWYQQKPGKAPKLWIYETSKLASGVPGRFSGSGSGNSYTFTISSLQPEDIATYYCFQGSGYPFTFGQGTKVEIK
notes: also called HuCAN46G24-2-3
For B1, the binding result is recorded as “binds” in experiment [1] and “no binding (tested: 0.038 ug/mL)” in experiment [2].

B2: huCAN46G13a (antibody, V domains shown)
VH: QVQLQESGPGLVKPSQTLSLTCTVTGYSITSDSAWNWIRQFPGNNLEWMGYISYSGSTSYNPSLKSRISITRDTSKNQFSLKVNSVTAADTAVYYCARRSRVSFYFDYWGQGTLVTVSS
VL: ENVLTQSPSSLSASVGDRVTMTCSASSSVSSSYLHWYQQKPGKSPKPLIHRTSTLASGVPSRFSGSGSGTSYSLTISSLQPEDIATYYCQQWSGYPYTFGGGTKVEIK
As a reminder, the Kd is the free concentration of one partner at which half of the binding sites on the other are occupied at equilibrium, for simple one-to-one binding. Read a low Kd as tighter binding. Broadly, the koff is the first-order rate constant of dissociation. Higher therefore signals fast dissociation. For orientation: kon means a measure of how fast the partners come together. A lower kon goes with slower complex formation. In experiment [3], B2 yielded a Kd of 423 pM. Moreover, the binding result in experiment [4] was “no binding (tested: 5 ug/mL)”. The koff in experiment [5] is less than 1e-07 s⁻¹; in experiment [6], 0.000234 s⁻¹. The kon in experiment [6] turned out to be 552000 M⁻¹ s⁻¹.
